Source: article PMC5628404, “Central catalytic domain of BRAP (RNF52) recognizes the types of ubiquitin chains and utilizes oligo-ubiquitin for ubiquitylation” (Biochemical Journal, 2017)

Target: T1, M1-linked di-ubiquitin chain (M1-Ub2) (human, UniProt P0CG48 1-76; P0CG48 1-76)
T1 construct: ubiquitin unit 1 of 2, joined head to tail (M1 linkage); from polyubiquitin-C (UBC), human; ubiquitin unit 2 of 2, joined head to tail (M1 linkage); One polypeptide of two ubiquitin units joined by a peptide bond G76-M1; also called linear di-ubiquitin; source: E. coli KRX, purified (method of Pickart and Raasi); made in the authors' laboratory
Experiment: SPR; Biacore 3000; ubiquitin monomer or ubiquitin chains amine-coupled to a CM5 chip; BRAP as analyte, serially diluted; 10 mM HEPES-NaOH pH 7.5, 150 mM NaCl, 0.005% surfactant P20; 25°C
Settings: both partners purified

Kd [nM] | binding result | Binder
95.1 |  | BRAP (124–569) (RNF52 domain) (domain or fragment, human, UniProt Q7Z569 124-569, looked up, The construct had the tag, a TEV site and a GSSGSSG linker at the N-terminus; after TEV cleavage the linker probably stays on the protein (surmised); also called RNF52 domain of BRAP; central catalytic domain of BRAP; source: cell-free synthesis in E. coli S30 extract, zinc supplemented; purified (HisTrap, TEV cleavage, ion exchange, gel filtration)) DQISFFSGNPSVEIVHGIMHLYKTNKMTSLKEDVRRSAMLCILTVPAAMTSHDLMKFVAPFNEVIEQMKIIRDSTPNQYMVLIKFRAQADADSFYMTCNGRQFNSIEDDVCQLVYVERAEVLKSEDGASLPVMDLTELPKCTVCLERMDESVNGILTTLCNHSFHSQCLQRWDDTTCPVCRYCQTPEPVEENKCFECGVQENLWICLICGHIGCGRYVSRHAYKHFEETQHTYAMQLTNHRVWDYAGDNYVHRLVASKTDGKIVQYECEGDTCQEEKIDALQLEYSYLLTSQLESQRIYWENKIVRIEKDTAEEINNMKTKFKETIEKCDNLEHKLNDLLKEKQSVERKCTQLNTKVAKLTNELKEEQEMNKCLRANQVLLQNKLKEEERVLKETCDQKDLQITEIQEQLRDVMFYLETQQKINHLPAETRQEIQEGQINIAMASA
 | binds | BRAP (1–592) (full-length) (natural protein, human, UniProt Q7Z569 1-592, looked up, The construct had the tag, a TEV site and a GSSGSSG linker at the N-terminus; after TEV cleavage the linker probably stays on the protein (surmised); also called full-length BRAP; BRAP2; source: cell-free synthesis in E. coli S30 extract, zinc supplemented; purified (MBPTrap, TEV cleavage, ion exchange, gel filtration); not shown: MBP, N-terminal, cleaved) MSVSLVVIRLELAEHSPVPAGFGFSAAAGEMSDEEIKKTTLASAVACLEGKSPGEKVAIIHQHLGRREMTDVIIETMKSNPDELKTTVEERKSSEASPTAQRSKDHSKECINAAPDSPSKQLPDQISFFSGNPSVEIVHGIMHLYKTNKMTSLKEDVRRSAMLCILTVPAAMTSHDLMKFVAPFNEVIEQMKIIRDSTPNQYMVLIKFRAQADADSFYMTCNGRQFNSIEDDVCQLVYVERAEVLKSEDGASLPVMDLTELPKCTVCLERMDESVNGILTTLCNHSFHSQCLQRWDDTTCPVCRYCQTPEPVEENKCFECGVQENLWICLICGHIGCGRYVSRHAYKHFEETQHTYAMQLTNHRVWDYAGDNYVHRLVASKTDGKIVQYECEGDTCQEEKIDALQLEYSYLLTSQLESQRIYWENKIVRIEKDTAEEINNMKTKFKETIEKCDNLEHKLNDLLKEKQSVERKCTQLNTKVAKLTNELKEEQEMNKCLRANQVLLQNKLKEEERVLKETCDQKDLQITEIQEQLRDVMFYLETQQKINHLPAETRQEIQEGQINIAMASASSPASSGGSGKLPSRKGRSKRGK
